Measurements as given in US20230220098A1, “THERAPEUTIC DRUG FOR POLYCYTHEMIA” (PERSEUS PROTEOMICS INC., priority 2019, published 2023).

How the values were obtained:
[1] = tested on: HYDREA (registered trademark)-administered patient-derived hematopoietic stem cells; experiment: Erythroblast colony assay, HYDREA-administered patients; assay type: cell-based, human
Protocol: The peripheral blood of a PV patient, which had been obtained by phlebotomy, was dispensed into three 50-mL centrifuge tubes in an amount of 20 mL each, and an equal amount of PBS (Gibco) was then added to each tube, followed by mixing. Thereafter, 15 mL of LymphoSep, Lymphocyte Separation Media (MP Biomedicals™) was dispensed into […] novel 50-mL centrifuge tubes, and the peripheral blood diluted with PBS was then slowly added thereto in an amount of 30 mL each, and the obtained mixture was then centrifuged at 1,500 rpm at room temperature for 30 minutes. After completion of the centrifugation, the plasma as a supernatant was removed, and a PBMC layer was collected by transfer pipetting. The collected PBMC layer was suspended in 20 mL of PBS+2% FBS (Gibco). The thus obtained suspension was further centrifuged at 1350 rpm at room temperature for 10 minutes, a supernatant was then removed, and the residue was then suspended in 1 to 5 mL of IMDM (Nacalai Tesque)+2% FBS. Using 0.2% Trypan Blue, the number of cells was counted, and the cells were adjusted to 2×10^6 cells/mL by addition of IMDM+2% FBS.
TfR436 and a human IgG1 antibody used as a negative control were each diluted with IMDM+2% FBS to an antibody concentration of […]. MethoCult™ H4534 Classic WithoutEPO (STEMCELL TECHNOLOGIES) was dispensed into seven 14-mL round bottle tubes in an amount of 3 mL each, and 300 jut of the above-prepared PBMC was then added thereto. Thereafter, an antibody-diluted solution or 3.3 μL of IMDM+2% FBS (control) was further added thereto, followed by full mixing. Thereafter, the reaction mixture was seeded on two 35-mm culture dishes in an amount of 1 mL each. This mixture was cultured at 37° C. in a 5% CO2 incubator for 14 days. After completion of the culture, the 35-mm culture dishes were observed under a microscope, and the number of the formed BFU-E or CFU-E colonies was then counted. The colony formation percentage with respect to the number of colonies obtained by a culture without addition of antibodies was then calculated.
Hematopoietic stem cells derived from patients administered with HYDREA (registered trademark) were used as PV patient-derived hematopoietic stem cells, and the activity of TfR436 to inhibit erythroblast colony formation was examined by the same method as that of Example 3. Besides, HYDREA (registered trademark) was administered as hydroxycarbamide (also referred to as “hydroxyurea”) to the patients via oral administration at a daily dose of 500 mg to 2000 mg once or divided over twice or three times. As a result, erythroblast colony formation was inhibited by addition of 100 ng/mL or more TfR436 (Table 2).

HEL cells = experiment: Combined effects of TfR436 and hydroxyurea on cell growth and cell death; assay type: cell-based; conditions: 72 hours
Protocol: HEL cells were cultured in an RPMI-1640 (Sigma-Aldrich)+10% FBS (Sigma-Aldrich)+1% PenStrep (Gibco) medium, and were then adjusted to 20000 cells/mL with the same medium as described above. Hydroxyurea (Wako Pure Chemical Industries, Ltd.) was weighed and was then dissolved in a concentration of 100 mM in distilled water for injection (Otsuka Pharmaceutical). The thus adjusted cell solution was seeded on a 96-well plate (Thermo SCIENTIFIC) in an amount of 100 μL/well. […]
From the plate after completion of the culture, the cultured cells in each well were dispensed into a V-bottom plate (Costar) in an amount of 100 μL, while pipetting. […] Then, the fluorescence of FL2 and the number of cells were measured. From the obtained results, the number of living cells (PI negative) and the number of dead cells (PI positive) were calculated, and thereafter, Viability (the number of PI-negative cells/the total number of cells×100) (%) and cell death percentage (100−Viability) (%) were calculated. Furthermore, the growth percentage in each well was calculated, when the number of living cells in the cell growth control was set to be 100%. […]

B1: TfR436: anti-human transferrin receptor antibody, VH SEQ ID NO: 7 and VL SEQ ID NO: 8, described in WO2014/073641; called PPMX-T003 in Tables 3 and 4 (antibody, listed as Homo sapiens, V domains shown)
VH: DVQLVQSGGGVVQPGRSLRLSCAASGFPFKSYGMHWVRQAPGKGLEWVAVISYDGSNKYYADSVKGRFTISRDNSKNTLYLQMNSLRGEDTAVYYCARDSNFWSGYYSPVDVWGQGTTVTVSS
VL: NFMLTQPHSVSESPGKTVTISCTRSSGSIASNSVQWYQQRPGSAPITVIYEDTQRPSGVPDRFSGSIDSSSNSASLTISGLQTEDEADYYCQSYDSAYHWVFGGGTKLAVL
- erythroblast colony formation ([1]; 100 ng/mL or more): inhibited
- colony formation percentage with respect to culture without addition of antibodies ([1]; HYDREA-administered pt No. 1, 10 ng/mL): 109.1%
- colony formation percentage with respect to culture without addition of antibodies ([1]; HYDREA-administered pt No. 1, 100 ng/mL): 0.0%
- colony formation percentage with respect to culture without addition of antibodies ([1]; HYDREA-administered pt No. 1, 1000 ng/mL): 0.0%
- colony formation percentage with respect to culture without addition of antibodies ([1]; HYDREA-administered pt No. 23, 10 ng/mL): 100.0%
- colony formation percentage with respect to culture without addition of antibodies ([1]; HYDREA-administered pt No. 23, 100 ng/mL): 0.0%
- colony formation percentage with respect to culture without addition of antibodies ([1]; HYDREA-administered pt No. 23, 1000 ng/mL): 0.0%
- colony formation percentage with respect to culture without addition of antibodies ([1]; HYDREA-administered pt No. 24, 10 ng/mL): 68.6%
- colony formation percentage with respect to culture without addition of antibodies ([1]; HYDREA-administered pt No. 24, 100 ng/mL): 0.0%
- colony formation percentage with respect to culture without addition of antibodies ([1]; HYDREA-administered pt No. 24, 1000 ng/mL): 0.0%
- colony formation percentage with respect to culture without addition of antibodies ([1]; HYDREA-administered pt No. 26, 10 ng/mL): 148.9%
- colony formation percentage with respect to culture without addition of antibodies ([1]; HYDREA-administered pt No. 26, 100 ng/mL): 10.6%
- colony formation percentage with respect to culture without addition of antibodies ([1]; HYDREA-administered pt No. 26, 1000 ng/mL): 0.0%
- colony formation percentage with respect to culture without addition of antibodies ([1]; HYDREA-administered pt No. 27, 10 ng/mL): 152.4%
- colony formation percentage with respect to culture without addition of antibodies ([1]; HYDREA-administered pt No. 27, 100 ng/mL): 0.0%
- colony formation percentage with respect to culture without addition of antibodies ([1]; HYDREA-administered pt No. 27, 1000 ng/mL): 0.0%
- colony formation percentage with respect to culture without addition of antibodies ([1]; HYDREA-administered pt No. 28, 10 ng/mL): 112.5%
- colony formation percentage with respect to culture without addition of antibodies ([1]; HYDREA-administered pt No. 28, 100 ng/mL): 0.0%
- colony formation percentage with respect to culture without addition of antibodies ([1]; HYDREA-administered pt No. 28, 1000 ng/mL): 0.0%
- cell growth inhibition, combined use with hydroxyurea (HEL cells; Table 3): synergistic cell growth inhibition effects were observed from a half or more of combined uses
- cell death percentage, combined use with hydroxyurea (HEL cells; all combined uses except lowest concentrations of both, Table 4): synergistic cell death-enhancing effects
